One molecule from US6905817B1, “Ret-independent signaling pathway for GDNF” (Licestia Ltd., priority 1998, dated 2005) can be followed below.

In test [1] the test system is GFRα2^−/− DRG neurons. Nature of the test: GDNF-evoked [Ca^2+]i changes, confocal microscopy, GFRα2^−/− DRG neurons. Format: cell-based, mouse. The protocol:
DRG from embryonic day 18 (E18) mice were treated with trypsin (Worthington), non-neuronal cells removed by preplating, and about 95% pure neurons cultured on poly-ornithine-laminin-coated glass coverslips in Ham's F14 medium (Imperial Laboratories) with serum substitute containing NGF, BDNF and NT-3 (all from PeproTech, 2 ng/ml if each) for at least 1 day before measurement. Neurotrophins were extensively washed out before GDNF application. GDNF was from PeproTech and donated by Cephalon, Inc. Ret-deficient mice (Schuchardt et al., 1994) were identified from heterozygote matings by the absence of kidneys and PCR-based genotyping. GFRα2-deficient mice were obtained from homozygote matings (Rossi et al., 1999).
[Ca^2+]i was measured using a Bio-Rad MRC-1024 confocal microscope equipped with an argon-krypton laser. The cells were loaded with 10 μM Calcium Green-1AM (Molecular Probes), a membrane permeable Ca^2+ dye, by 30 min incubation in serum free cell-culture media at 37 ° C. and 5 % CO2. After loading, the neurons were kept at room temperature in Dulbecco's PBS solution contained 20 mM HEPES (pH=7.4) for at least 20 min prior to the experiments. All compounds were applied to the bath by a peristaltic pump. 6 kD Heparin (Sigma) and Alexa 568 nm fluorescent dye (Molecular Probes) were loaded into the cells using Molecular Probes' pinocytotic influx loading reagent basically according to the manufacturer instructions. […] Cell injection was performed using Eppendorf microinjection system. The average intensity of fluorescence in the predefined ROI (Region Of Interest) was measured on-line using TimeCourse software from BioRad. The calibration of fluorescence traces was performed in vitro using Fmax and Fmin values obtained with the calcium calibration buffer kit (Molecular Probes). Because the calibration solutions may not reflect the intracellular environment, the experimental data are presented as delta [Ca^2+]i calculated using Kd=190 nM for Calcium Green-1.
Transgenic GFRα2 knock-out mice were produced in our laboratory. […]

Test [2] deals with p42/p44 MAP kinases. Nature of the test: MAPK phosphorylation assay in Ret^−/− DRG neurons. The class given is cell-based, mouse. The note with it: GDNF 100 ng/ml. Here is the method:
(§1) To assess GDNF-dependent MAPK and CREB phosphorylation in all studied cell lines, the semiconfluent cell monolayers were starved for 3 hours in serum-free medium, and then GDNF was applied for the indicated time. For the analysis of MAPK and CREB activation in Ret^−/− animals the DRG neurons were dissected from E18 mice and maintained in NGF-containing medium for 2 hours. After this time the neurons were deprived of NGF by placing them in NGF-free medium in the presence of anti-NGF antibodies. After 2 hr without NGF, the neurons were stimulated with GDNF. In the experiments involving Src-kinase inhibition, a Src-family kinase inhibitor PP2 was added at the indicated concentrations to the cell monolayers 5 min before GDNF application. In some experiments 1 μg/ml of soluble GFRα1 lacking a GPI anchor (GFRα1/Fc chimeric protein; R&D systems) was added 5 min prior to the GDNF application and was kept in the solution during the GDNF treatment, After stimulation, the cells were briefly washed with PBS/sodium vanadate and lysed in the buffer containing TBS, 2 mM EDTA, 1% NP-40, 1% Triton X-100, 1 mM PMSF, 1 mM Na3VO4 and a Complete, protease inhibitors cocktail (Boehringer Mannheim). Total cell protein for each extract was measured by MicroBSA (Pierce) and an equivalent amount of protein was resolved electrophoretically on 10% polyacrylamide gels. […]

The test system of test [3] is CREB. Nature of the test: CREB Ser-133 phosphorylation assay in Ret^−/− DRG neurons. Format: cell-based, mouse. The note with it: after GDNF treatment. The protocol: as §1
The test system of test [4] is p42/p44 MAPK. Nature of the test: MAPK phosphorylation assay in SHEP neuroblastoma cells. Format: cell-based, human. The following applies: GDNF 100 ng/ml. The protocol: as §1
For test [5], the system named is CREB-related protein ATF-1. Nature of the test: ATF-1 phosphorylation in SHEP cells. The note with it: GDNF treatment. Format: cell-based, human. Here is the method:
as §1

The subject of test [6] is p42/p44 MAPK. Nature of the test: MAPK phosphorylation in NIH 3T3 fibroblasts stably transfected with GFRα1. The class given is cell-based. The following applies: GDNF 100 ng/ml. Here is the method:
as §1

For test [7], the system named is MAPK. Nature of the test: MAPK phosphorylation in parental NIH3T3 fibroblasts lacking both Ret and GFRα1. Format: cell-based. The following applies: GDNF 100 ng/ml alone. The protocol:
as §1

Test [8] relates to PLCγ. Nature of the test: PLCγ tyrosine phosphorylation (immunoprecipitation and Western blotting) in SHEP cells. Format: cell-based, human. Here is the method:
To determine changes in GDNF-evoked PLCγ tyrosine phosphorylation the Western blotting assays were performed as described in Khare et al. (1997). Briefly, SHEP neuroblastoma cells were pre-incubated with 1 mM sodium vanadate in serum-free medium for 30 min. at 37 ° C. and then were treated at 37 ° C. with 1-100 ng/ml GDNF for 1 min. unless otherwise indicated. Incubation was stopped by the addition of ice-cold PBS buffer containing 1 mM sodium vanadate. Whole cell lysates (final protein concentration 0.1-0.3 mg/ml) were prepared at 4° C. in an extraction buffer (pH 7.5) containing 50 mM Tris-HCl, 137 mM NaCl, 1 mM sodium vanadate, 1 mM PMSF, 10% glycerol, 1% NP-40 and protease inhibitors cocktail (Boehringer). Phosphotyrosine-containing proteins were immunoprecipitated with 4G-10 antibodies (Upstate Biotechnology), collected with Protein A Sepharose beads and separated on the 7.5% SDS-PAGE. The proteins were transferred to Hybond-ECL nitrocellulose membrane, and PLCγ was assessed by Western blotting using anti-PLCγ antibodies (Upstate Biotechnology). In some experiments we first immunoprecipitated PLCγ from the cell lysate using anti-PLCγ antibodies and probed the filter with anti-phosphotyrosine 4G-10 antibodies as described above. […]

Entries after “also recorded” stand apart in the source; their conditions may differ.

B1: Glial cell line—derived neurotrophic factor (protein, UniProt P39905 78-211, looked up)
Glial cell line-derived …: SPDKQMAVLPRRERNRQAAAANPENSRGKGRRGQRGKNRGCVLTAIHLNVTDLGLGYETKEELIFRYCSGSCDAAETTYDKILKNLSRNRRLVSDKVGQACCRPIAFDDDLSFLDDNLVYHILRKHSAKRCGCI
notes: TGF-β family-related neurotrophic protein; from PeproTech and donated by Cephalon, Inc
As to B1, the “change in [Ca^2+]i” value in test [1] (GDNF 100 ng/ml, normal external Ca^2+) was “evoked both transient and sustained [Ca^2+]i elevation; also recorded: same pattern of fast and slow kinetics of Ca^2+ elevation as the wild type neurons”; in test [1] (GDNF after nominal removal of extracellular calcium (about 20 μM)) it was “profound rapid and oscillatory (5 out of 9 cells) [Ca^2+]i increase”. In addition, in test [2], the “activation (phosphorylation) of MAPK” value is recorded as “several-fold rapid activation of MAPK”. Besides, the “CREB phosphorylation in Ser-133” value in test [3] is “increased substantially already at 5 min”. For the same molecule, the “p42/p44 MAPK phosphorylation” value in test [4] was “transient and profound increase of p42/p44 MAPK phosphorylation”. The “phosphorylation / activation of ATF-1” value in test [5] was “induced phosphorylation of the CREB-related protein ATF-1; also recorded: robust GDNF-dependent activation of the CREB-related protein ATF-1”. Moreover, the “phosphorylation of MAPK” value in test [6] is reported as “reproducibly increased phosphorylation of MAPK”. For the same molecule, in test [7], the MAPK phosphorylation entry is given as “did not evoke any MAPK phosphorylation”. In addition, in test [8] (GDNF), the “time to return to basal tyrosine phosphorylation levels of PLCγ” value is given as no more than 5 min. The PLCγ tyrosine phosphorylation entry in test [8] (GDNF 1-100 ng/ml, 1 min) is “significantly increased PLCγ tyrosine phosphorylation; also recorded: dose-dependent increase in PLCγ tyrosine phosphorylation”.
